Target: the molecule itself
Assay: not stated; purified TSP2 site-directed mutants; how the trimeric state was shown is not told

Protein	stoichiometry N
D506A:D571A TSP2 (enzyme, UniProt G3M190 1-921, looked up, Made by Q5 site-directed mutagenesis of the TSP2 plasmid; also called TSP2 D506A:D571A double mutant; source: E. coli BL21(DE3), purified similar to wild type TSPs) MTRNVEELFGGVITAPHQIPFTYKSNVGGETFLSLPFYPVTGVVTINGGMQVPLDNFEIEGNTLNLGRALSKGDVVYCLFDKILSPEDTAKGIRIYKFQAVGGETEFTPDFTSYGVQSLYIGGEYKTPEIEYSYDSTTGKVSLQTALSAGVWVVAEMSVKQPNISPAFDRSIQEIARSANVKDSEVIVSTDTISLLDGKKVVYDIATQTSYGLPTIPDGSVISSVSAGKLNYNPGDVQVDLLPLEDSFINVINTLGRNDGAKYIGECHSVADLRNTEPTMDGQRIILKQHTAGTLLGGGVFRALIDGTGKTDNNGTVIKTVGGAAWLRVNADRVNPFMFGALGGSNDDTIPVQSCVDSGKATQLTDAHYVSNIQLKYNTSSIYGSGLHYSRLHQLPSATGNCITIKDTCSLIVLDAFGVYGTGAQQGTSFTAGTTGIYVETPSGLSADYPFHTTADPRRDLCISKVHIAGFDEYGLNIDSGNFSVTTDSLLVNHINQVGVRCATTAWTWTNIQVNTCGKQCLVLDGCGNGRIIGGKFIWANWQPYGTVGQFPGITINNSQNMVINGIEVQACGGNGIEISESYSISMNGLNTNRNGINANNTFYNIVFNKSDAVINGFVGLNYAANSGSGANSSAGNFQFLSNDCSVTINGVVETGYMGINFIGDNNIINPTNSDLSINGLVNYSKTGLQTMNETPTFDGVSTTPVYVSVPSSVGQVNGLRLSQANKDKLLYSRTAGPEGITMAAVIVPTISGAEVFNFMAIGSGFSDTSNSLHLQLVIDASGKQTIALLLGGDGTTQILSGDLPNDLKLQSGVPYHIAIGAKPGYFWWSILNIQTGKRIRRSFRGAYLAVPFNSIFGLTSSLTFFSDSNAGGDACSGVGAKVYVGMFSSENDYVASRYYNLINPVDPTKLISYRILDSSI	3
D506N:D571N TSP2 (enzyme, UniProt G3M190 1-921, looked up, Made by Q5 site-directed mutagenesis of the TSP2 plasmid; also called TSP2 D506N:D571N double mutant; TSP2 asparagine double mutant; source: E. coli BL21(DE3), purified similar to wild type TSPs) MTRNVEELFGGVITAPHQIPFTYKSNVGGETFLSLPFYPVTGVVTINGGMQVPLDNFEIEGNTLNLGRALSKGDVVYCLFDKILSPEDTAKGIRIYKFQAVGGETEFTPDFTSYGVQSLYIGGEYKTPEIEYSYDSTTGKVSLQTALSAGVWVVAEMSVKQPNISPAFDRSIQEIARSANVKDSEVIVSTDTISLLDGKKVVYDIATQTSYGLPTIPDGSVISSVSAGKLNYNPGDVQVDLLPLEDSFINVINTLGRNDGAKYIGECHSVADLRNTEPTMDGQRIILKQHTAGTLLGGGVFRALIDGTGKTDNNGTVIKTVGGAAWLRVNADRVNPFMFGALGGSNDDTIPVQSCVDSGKATQLTDAHYVSNIQLKYNTSSIYGSGLHYSRLHQLPSATGNCITIKDTCSLIVLDAFGVYGTGAQQGTSFTAGTTGIYVETPSGLSADYPFHTTADPRRDLCISKVHIAGFDEYGLNIDSGNFSVTTDSLLVNHINQVGVRCATTNWTWTNIQVNTCGKQCLVLDGCGNGRIIGGKFIWANWQPYGTVGQFPGITINNSQNMVINGIEVQNCGGNGIEISESYSISMNGLNTNRNGINANNTFYNIVFNKSDAVINGFVGLNYAANSGSGANSSAGNFQFLSNDCSVTINGVVETGYMGINFIGDNNIINPTNSDLSINGLVNYSKTGLQTMNETPTFDGVSTTPVYVSVPSSVGQVNGLRLSQANKDKLLYSRTAGPEGITMAAVIVPTISGAEVFNFMAIGSGFSDTSNSLHLQLVIDASGKQTIALLLGGDGTTQILSGDLPNDLKLQSGVPYHIAIGAKPGYFWWSILNIQTGKRIRRSFRGAYLAVPFNSIFGLTSSLTFFSDSNAGGDACSGVGAKVYVGMFSSENDYVASRYYNLINPVDPTKLISYRILDSSI	3
D506N:D571A TSP2 (enzyme, UniProt G3M190 1-921, looked up, Made by Q5 site-directed mutagenesis of the TSP2 plasmid; source: E. coli BL21(DE3), purified similar to wild type TSPs) MTRNVEELFGGVITAPHQIPFTYKSNVGGETFLSLPFYPVTGVVTINGGMQVPLDNFEIEGNTLNLGRALSKGDVVYCLFDKILSPEDTAKGIRIYKFQAVGGETEFTPDFTSYGVQSLYIGGEYKTPEIEYSYDSTTGKVSLQTALSAGVWVVAEMSVKQPNISPAFDRSIQEIARSANVKDSEVIVSTDTISLLDGKKVVYDIATQTSYGLPTIPDGSVISSVSAGKLNYNPGDVQVDLLPLEDSFINVINTLGRNDGAKYIGECHSVADLRNTEPTMDGQRIILKQHTAGTLLGGGVFRALIDGTGKTDNNGTVIKTVGGAAWLRVNADRVNPFMFGALGGSNDDTIPVQSCVDSGKATQLTDAHYVSNIQLKYNTSSIYGSGLHYSRLHQLPSATGNCITIKDTCSLIVLDAFGVYGTGAQQGTSFTAGTTGIYVETPSGLSADYPFHTTADPRRDLCISKVHIAGFDEYGLNIDSGNFSVTTDSLLVNHINQVGVRCATTNWTWTNIQVNTCGKQCLVLDGCGNGRIIGGKFIWANWQPYGTVGQFPGITINNSQNMVINGIEVQACGGNGIEISESYSISMNGLNTNRNGINANNTFYNIVFNKSDAVINGFVGLNYAANSGSGANSSAGNFQFLSNDCSVTINGVVETGYMGINFIGDNNIINPTNSDLSINGLVNYSKTGLQTMNETPTFDGVSTTPVYVSVPSSVGQVNGLRLSQANKDKLLYSRTAGPEGITMAAVIVPTISGAEVFNFMAIGSGFSDTSNSLHLQLVIDASGKQTIALLLGGDGTTQILSGDLPNDLKLQSGVPYHIAIGAKPGYFWWSILNIQTGKRIRRSFRGAYLAVPFNSIFGLTSSLTFFSDSNAGGDACSGVGAKVYVGMFSSENDYVASRYYNLINPVDPTKLISYRILDSSI	3
D506A:D571N TSP2 (enzyme, UniProt G3M190 1-921, looked up, Made by Q5 site-directed mutagenesis of the TSP2 plasmid; source: E. coli BL21(DE3), purified similar to wild type TSPs) MTRNVEELFGGVITAPHQIPFTYKSNVGGETFLSLPFYPVTGVVTINGGMQVPLDNFEIEGNTLNLGRALSKGDVVYCLFDKILSPEDTAKGIRIYKFQAVGGETEFTPDFTSYGVQSLYIGGEYKTPEIEYSYDSTTGKVSLQTALSAGVWVVAEMSVKQPNISPAFDRSIQEIARSANVKDSEVIVSTDTISLLDGKKVVYDIATQTSYGLPTIPDGSVISSVSAGKLNYNPGDVQVDLLPLEDSFINVINTLGRNDGAKYIGECHSVADLRNTEPTMDGQRIILKQHTAGTLLGGGVFRALIDGTGKTDNNGTVIKTVGGAAWLRVNADRVNPFMFGALGGSNDDTIPVQSCVDSGKATQLTDAHYVSNIQLKYNTSSIYGSGLHYSRLHQLPSATGNCITIKDTCSLIVLDAFGVYGTGAQQGTSFTAGTTGIYVETPSGLSADYPFHTTADPRRDLCISKVHIAGFDEYGLNIDSGNFSVTTDSLLVNHINQVGVRCATTAWTWTNIQVNTCGKQCLVLDGCGNGRIIGGKFIWANWQPYGTVGQFPGITINNSQNMVINGIEVQNCGGNGIEISESYSISMNGLNTNRNGINANNTFYNIVFNKSDAVINGFVGLNYAANSGSGANSSAGNFQFLSNDCSVTINGVVETGYMGINFIGDNNIINPTNSDLSINGLVNYSKTGLQTMNETPTFDGVSTTPVYVSVPSSVGQVNGLRLSQANKDKLLYSRTAGPEGITMAAVIVPTISGAEVFNFMAIGSGFSDTSNSLHLQLVIDASGKQTIALLLGGDGTTQILSGDLPNDLKLQSGVPYHIAIGAKPGYFWWSILNIQTGKRIRRSFRGAYLAVPFNSIFGLTSSLTFFSDSNAGGDACSGVGAKVYVGMFSSENDYVASRYYNLINPVDPTKLISYRILDSSI	3
D506N:E568A:D571N TSP2 (enzyme, UniProt G3M190 1-921, looked up, Made by Q5 site-directed mutagenesis of the TSP2 plasmid; source: E. coli BL21(DE3), purified similar to wild type TSPs) MTRNVEELFGGVITAPHQIPFTYKSNVGGETFLSLPFYPVTGVVTINGGMQVPLDNFEIEGNTLNLGRALSKGDVVYCLFDKILSPEDTAKGIRIYKFQAVGGETEFTPDFTSYGVQSLYIGGEYKTPEIEYSYDSTTGKVSLQTALSAGVWVVAEMSVKQPNISPAFDRSIQEIARSANVKDSEVIVSTDTISLLDGKKVVYDIATQTSYGLPTIPDGSVISSVSAGKLNYNPGDVQVDLLPLEDSFINVINTLGRNDGAKYIGECHSVADLRNTEPTMDGQRIILKQHTAGTLLGGGVFRALIDGTGKTDNNGTVIKTVGGAAWLRVNADRVNPFMFGALGGSNDDTIPVQSCVDSGKATQLTDAHYVSNIQLKYNTSSIYGSGLHYSRLHQLPSATGNCITIKDTCSLIVLDAFGVYGTGAQQGTSFTAGTTGIYVETPSGLSADYPFHTTADPRRDLCISKVHIAGFDEYGLNIDSGNFSVTTDSLLVNHINQVGVRCATTNWTWTNIQVNTCGKQCLVLDGCGNGRIIGGKFIWANWQPYGTVGQFPGITINNSQNMVINGIAVQNCGGNGIEISESYSISMNGLNTNRNGINANNTFYNIVFNKSDAVINGFVGLNYAANSGSGANSSAGNFQFLSNDCSVTINGVVETGYMGINFIGDNNIINPTNSDLSINGLVNYSKTGLQTMNETPTFDGVSTTPVYVSVPSSVGQVNGLRLSQANKDKLLYSRTAGPEGITMAAVIVPTISGAEVFNFMAIGSGFSDTSNSLHLQLVIDASGKQTIALLLGGDGTTQILSGDLPNDLKLQSGVPYHIAIGAKPGYFWWSILNIQTGKRIRRSFRGAYLAVPFNSIFGLTSSLTFFSDSNAGGDACSGVGAKVYVGMFSSENDYVASRYYNLINPVDPTKLISYRILDSSI	3
D506N:E568Q:D571N TSP2 (enzyme, UniProt G3M190 1-921, looked up, Made by Q5 site-directed mutagenesis of the TSP2 plasmid; source: E. coli BL21(DE3), purified similar to wild type TSPs) MTRNVEELFGGVITAPHQIPFTYKSNVGGETFLSLPFYPVTGVVTINGGMQVPLDNFEIEGNTLNLGRALSKGDVVYCLFDKILSPEDTAKGIRIYKFQAVGGETEFTPDFTSYGVQSLYIGGEYKTPEIEYSYDSTTGKVSLQTALSAGVWVVAEMSVKQPNISPAFDRSIQEIARSANVKDSEVIVSTDTISLLDGKKVVYDIATQTSYGLPTIPDGSVISSVSAGKLNYNPGDVQVDLLPLEDSFINVINTLGRNDGAKYIGECHSVADLRNTEPTMDGQRIILKQHTAGTLLGGGVFRALIDGTGKTDNNGTVIKTVGGAAWLRVNADRVNPFMFGALGGSNDDTIPVQSCVDSGKATQLTDAHYVSNIQLKYNTSSIYGSGLHYSRLHQLPSATGNCITIKDTCSLIVLDAFGVYGTGAQQGTSFTAGTTGIYVETPSGLSADYPFHTTADPRRDLCISKVHIAGFDEYGLNIDSGNFSVTTDSLLVNHINQVGVRCATTNWTWTNIQVNTCGKQCLVLDGCGNGRIIGGKFIWANWQPYGTVGQFPGITINNSQNMVINGIQVQNCGGNGIEISESYSISMNGLNTNRNGINANNTFYNIVFNKSDAVINGFVGLNYAANSGSGANSSAGNFQFLSNDCSVTINGVVETGYMGINFIGDNNIINPTNSDLSINGLVNYSKTGLQTMNETPTFDGVSTTPVYVSVPSSVGQVNGLRLSQANKDKLLYSRTAGPEGITMAAVIVPTISGAEVFNFMAIGSGFSDTSNSLHLQLVIDASGKQTIALLLGGDGTTQILSGDLPNDLKLQSGVPYHIAIGAKPGYFWWSILNIQTGKRIRRSFRGAYLAVPFNSIFGLTSSLTFFSDSNAGGDACSGVGAKVYVGMFSSENDYVASRYYNLINPVDPTKLISYRILDSSI	3

Source: publication PMC7506556, “Structure and function of bacteriophage CBA120 ORF211 (TSP2), the determinant of phage specificity towards E. coli O157:H7” (Scientific Reports, 2020)
